In patent US20220372154A1 (APEXIGEN, published 2022):

How the values were obtained:
[1] = target: T1, osteoprotegerin (OPG) (UniProt O00300 22-401, limits assumed); assay: ELISA on coated OPG, OD 650 nm
T1 sequence (looked up): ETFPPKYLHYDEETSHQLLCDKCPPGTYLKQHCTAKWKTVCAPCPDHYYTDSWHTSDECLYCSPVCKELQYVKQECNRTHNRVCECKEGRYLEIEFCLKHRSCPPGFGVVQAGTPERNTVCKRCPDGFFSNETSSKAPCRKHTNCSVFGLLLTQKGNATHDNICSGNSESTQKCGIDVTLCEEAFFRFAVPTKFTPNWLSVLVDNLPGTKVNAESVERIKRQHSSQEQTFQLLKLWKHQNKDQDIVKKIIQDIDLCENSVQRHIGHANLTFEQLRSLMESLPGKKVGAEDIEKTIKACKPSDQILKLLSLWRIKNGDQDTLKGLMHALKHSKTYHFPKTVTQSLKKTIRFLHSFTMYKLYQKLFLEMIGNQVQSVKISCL
Protocol: (§1) To test binding to TNFR family members, target proteins were coated on ELISA plates at 1 μg/mL at 4° C. overnight. Plates were washed, blocked, and antibodies were added at indicated concentrations for 1 hour at RT. Positive control antibodies for each protein were used at ˜1 ug/mL. Antibodies were washed and detected with anti-human IgG HRP for 1 hour. Assay was developed using TMB substrate for 10 minutes. For cell-binding, human CD4+ T cells purified from buffy coats were cultured in flat-bottom plates with anti-CD3/CD28 for 24 hours. Cells were harvested and stained for viability, CD4, CD25 and FOXP3. Test antibody staining was detected using anti-human IgG APC. Binding titration of test antibodies was evaluated on CD4+CD25hiFOXP3+ regulatory T cells and plotted as percent binding.

[2] = target: T2, death receptor 6 (DR6) (UniProt O75509 42-349, limits assumed); assay: ELISA on coated DR6, OD 650 nm
T2 sequence (looked up): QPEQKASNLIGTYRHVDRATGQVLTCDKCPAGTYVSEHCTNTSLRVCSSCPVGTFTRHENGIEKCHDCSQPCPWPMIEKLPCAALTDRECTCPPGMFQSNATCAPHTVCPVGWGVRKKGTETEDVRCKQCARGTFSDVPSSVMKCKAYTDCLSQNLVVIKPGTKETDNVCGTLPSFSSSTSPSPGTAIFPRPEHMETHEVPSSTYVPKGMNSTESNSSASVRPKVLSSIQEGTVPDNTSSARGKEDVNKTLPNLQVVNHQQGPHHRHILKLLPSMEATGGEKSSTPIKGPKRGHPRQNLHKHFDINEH
Protocol: as §1

[3] = target: T3, human TNFR2 expressed on cells (human, UniProt P20333 23-461); assay: flow cytometry, cell-expressed human TNFR2
T3 construct: whole, on cells; also called hTNFR2 (cell); CHO-TNFR2
T3 sequence (looked up): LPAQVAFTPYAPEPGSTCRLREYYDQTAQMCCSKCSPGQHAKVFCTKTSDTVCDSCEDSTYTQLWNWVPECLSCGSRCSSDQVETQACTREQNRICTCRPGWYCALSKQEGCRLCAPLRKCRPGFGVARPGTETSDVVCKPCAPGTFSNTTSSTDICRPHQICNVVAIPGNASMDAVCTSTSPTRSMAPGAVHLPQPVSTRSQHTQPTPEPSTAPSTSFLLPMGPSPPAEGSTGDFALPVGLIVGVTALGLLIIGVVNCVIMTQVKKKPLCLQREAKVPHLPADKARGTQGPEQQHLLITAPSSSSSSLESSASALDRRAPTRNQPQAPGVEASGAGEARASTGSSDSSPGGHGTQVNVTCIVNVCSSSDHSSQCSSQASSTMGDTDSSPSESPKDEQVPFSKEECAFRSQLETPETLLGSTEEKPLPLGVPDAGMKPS

B1: humanized antibody h600-25-71 (antibody, V domains shown)
VH: EVQLVESGGGLVQPGGSLRLSCAASGIDLSSYAMGWVRQAPGKGLEWVGDISTSGNAYYATWVKGRFTISRDNSKNTLYLQMNSLRAEDTAVYYCARADYGGETYAFDPWGQGTLVTVSS
VL: DIQMTQSPSSLSASVGDRVTITCQASQSISSYLNWYQQKPGKAPKLLIYSASTLASGVPSRFSGSGSGTDFTLTISSLQPEDFATYYCQQGYSDSNIDNVFGGGTKVEIK
notes: also called Ab 25-71; clone 25-71
- binding result [1]: no binding (tested: about 67 nM)
- binding result [2]: no binding (tested: about 67 nM)
- EC50 [3]: 0.242 nM
